Where a chain is given by its changes, count along the chain named. Values belong to the binder of their own block, whether it stands above or below them.
How the values were obtained:
[1] = target: T1, cynomolgus E11 domain protein (cynomolgus monkey); assay: SPR, IgG capture
T1 construct: whole entry named; also called cyno E11
T1 chain: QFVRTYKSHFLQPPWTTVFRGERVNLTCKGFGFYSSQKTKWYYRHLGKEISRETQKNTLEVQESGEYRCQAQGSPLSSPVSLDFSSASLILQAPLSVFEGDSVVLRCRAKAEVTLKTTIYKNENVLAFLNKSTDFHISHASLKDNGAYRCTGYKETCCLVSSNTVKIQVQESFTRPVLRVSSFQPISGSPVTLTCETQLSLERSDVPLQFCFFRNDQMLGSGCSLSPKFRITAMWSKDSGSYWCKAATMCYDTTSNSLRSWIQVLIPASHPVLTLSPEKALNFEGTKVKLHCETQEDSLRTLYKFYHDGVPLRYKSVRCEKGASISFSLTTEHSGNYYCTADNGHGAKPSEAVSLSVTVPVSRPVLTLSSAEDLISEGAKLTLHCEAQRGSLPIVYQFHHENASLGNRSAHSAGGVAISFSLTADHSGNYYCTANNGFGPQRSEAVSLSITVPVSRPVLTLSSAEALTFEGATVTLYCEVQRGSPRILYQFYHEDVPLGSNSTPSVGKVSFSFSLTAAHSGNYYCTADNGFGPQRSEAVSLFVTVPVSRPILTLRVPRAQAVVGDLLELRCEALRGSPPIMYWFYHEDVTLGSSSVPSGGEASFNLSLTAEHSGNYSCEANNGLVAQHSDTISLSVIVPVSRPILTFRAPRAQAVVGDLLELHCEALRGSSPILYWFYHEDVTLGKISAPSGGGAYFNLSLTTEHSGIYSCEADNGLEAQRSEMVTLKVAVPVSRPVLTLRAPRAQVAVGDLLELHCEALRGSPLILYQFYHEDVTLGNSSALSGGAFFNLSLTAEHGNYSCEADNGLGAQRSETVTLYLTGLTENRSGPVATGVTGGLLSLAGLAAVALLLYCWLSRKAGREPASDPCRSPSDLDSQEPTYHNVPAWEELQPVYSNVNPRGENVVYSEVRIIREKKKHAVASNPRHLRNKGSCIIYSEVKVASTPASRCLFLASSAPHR
Method: Briefly, test antibodies were captured on flow cells 2, 3 or 4 with flow cell 1 as a reference on a protein A Series S CM5 chip (GE Life Sciences, Piscataway, NJ). An FcRH5 protein fragment was used as analyte, with a flow rate of 30 μl/minute. Between injections the capture surface was regenerated by a 30 second injection of 10 mM glycine, pH 1.5 at a flow rate of 10 μl/minute. Interactions were assessed at 25° C. in 10 mM HEPES pH 7.4, 150 mM NaCl, 0.05% Tween 20 (HBSP). Reference data from the reference flow cell and from injection of buffer alone was subtracted prior to kinetic analysis. Kinetic information was calculated by fitting data to a 1:1 binding model. Reference subtraction and data fitting were performed using BIAevaluation software (GE Life Sciences, Piscataway, NJ).

[2] = target: T2, human FcRH5 protein fragment (soluble) (human, UniProt Q96RD9 16-851); assay: SPR (BIACORE), TDB captured as ligand, Hu FcRH5 as analyte, 25 °C, 1:1 binding model
T2 construct: whole entry named; also called soluble human FcRH5; Human FcRH5 (BIACORE analyte)
T2 sequence: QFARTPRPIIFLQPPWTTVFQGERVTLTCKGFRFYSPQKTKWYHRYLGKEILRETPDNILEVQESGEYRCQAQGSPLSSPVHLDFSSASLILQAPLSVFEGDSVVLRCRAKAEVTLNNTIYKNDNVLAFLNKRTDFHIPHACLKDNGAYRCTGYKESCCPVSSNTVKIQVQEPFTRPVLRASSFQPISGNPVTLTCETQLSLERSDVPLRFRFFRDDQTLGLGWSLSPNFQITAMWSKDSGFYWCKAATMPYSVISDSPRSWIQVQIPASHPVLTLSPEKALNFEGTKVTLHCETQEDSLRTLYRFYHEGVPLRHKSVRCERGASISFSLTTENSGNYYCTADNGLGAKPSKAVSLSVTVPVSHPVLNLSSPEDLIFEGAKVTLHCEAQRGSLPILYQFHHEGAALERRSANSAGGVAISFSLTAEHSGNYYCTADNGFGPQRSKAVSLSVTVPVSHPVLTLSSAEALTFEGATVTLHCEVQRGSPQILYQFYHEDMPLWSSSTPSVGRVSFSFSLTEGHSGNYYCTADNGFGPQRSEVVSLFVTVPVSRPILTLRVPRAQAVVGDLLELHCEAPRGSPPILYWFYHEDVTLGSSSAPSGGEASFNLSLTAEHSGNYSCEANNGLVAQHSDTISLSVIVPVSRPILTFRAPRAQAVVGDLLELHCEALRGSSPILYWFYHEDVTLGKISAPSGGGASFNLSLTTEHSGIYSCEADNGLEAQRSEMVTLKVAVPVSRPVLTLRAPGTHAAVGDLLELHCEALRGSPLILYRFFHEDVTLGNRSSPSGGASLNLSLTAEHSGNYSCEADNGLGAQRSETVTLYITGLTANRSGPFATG

[3] = target: T3, cynomolgus FcRH5 protein fragment (soluble) (cynomolgus monkey); assay: SPR (BIACORE), TDB captured as ligand, Cyno FcRH5 as analyte, 25 °C, 1:1 binding model
T3 construct: whole entry named; also called Cyno FcRH5 (BIACORE analyte)
T3 chain: T1 chain

[4] = target: T3, cynomolgus FcRH5 protein fragment …; assay: SPR (BIACORE), hIgG capture format, 1:1 binding model, monovalent affinity; same numbers as FIG. 10B, Cyno FcRH5 panel
Method: Kinetic characterization experiments were carried out (see Table 8). In these experiments, binding of soluble FcRH5 protein fragment to purified antibodies in human TDB antibody format was analyzed at six different non-zero concentrations (a 1:3 dilution series, one concentration injected twice as a replicate). Flow rate was set at 40 μl/min and association and dissociation monitored for 600 s.

- KD difference between human and cynomolgus E11 domains [1]: ~20 fold
B1: 15G8 (antibody, mouse IgG2a, V domains shown)
VH: EVQLQQSGPELVKPGASVKMSCKASGYTFTNYVIHWMKQKPGQGLEWIGYISPYNDYTKYNEKFEGKATLTSDKSSNTAYMELSSLTSEDSAVYYCARRDYYGSSDYWGQGTTLTVSS
VL: QIVLTQSPAIMSASPGEKVTMTCSASSSVDYMHWYQQKSGTSPKKWIYDTSKLASGVPARFSGSGSGTSYSLTIGSMEAEDAATYYCQQWSSNPPTFGGGTKLEIK
notes: mouse mAb, Campaign C; recombinant murine IgG2a for SPR; also called mAb 15G8

- Kd [2]: 2.41 nM
- koff [2]: 0.00117 s⁻¹
- kon [2]: 484000 M⁻¹ s⁻¹
- Kd [3]: 6.27 nM
- koff [3]: 0.000847 s⁻¹
- kon [3]: 135000 M⁻¹ s⁻¹
B2: hu1G7.v1.4/38E4.v1 TDB (bispecific antibody, V domains shown)
VH 1: EVQLVESGPGLVKPSETLSLTCTVSGFSLTRFGVHWVRQPPGKGLEWLGVIWRGGSTDYNAAFMSRLTISKDNSKNQVSLKLSSVTAADTAVYYCSNHYYGSSDYALDNWGQGTLVTVSS
VL 1: DIQMTQSPSSLSASVGDRVTITCKASQDVRNLVVWFQQKPGKAPKLLIYSGSYRYSGVPSRFSGSGSGTDFTLTISSLQPEDFATYYCQQHYSPPYTFGQGTKVEIK
VH 2: EVQLVQSGAEVKKPGASVKVSCKASGFTFTSYYIHWVRQAPGQGLEWIGWIYPENDNTKYNEKFKDRVTITADTSTSTAYLELSSLRSEDTAVYYCARDGYSRYYFDYWGQGTLVTVSS
VL 2: DIVMTQSPDSLAVSLGERATINCKSSQSLLNSRTRKNYLAWYQQKPGQSPKLLIYWTSTRKSGVPDRFSGSGSGTDFTLTISSLQAEDVAVYYCKQSFILRTFGQGTKVEIK
notes: knob-into-hole TDB; also called 1G7.v1.4 TDB; 1G7.v1.4 (TDB format)

- Kd [4]: 6.76 nM
- koff [4]: 0.000847 s⁻¹
- kon [4]: 125000 M⁻¹ s⁻¹
B3: 1G7.v85/38E4.v1 TDB (bispecific antibody, V domains shown)
VH 1: B2 VH 1 with M64V
VL 1: B2 VL 1
VH 2: B2 VH 2
VL 2: B2 VL 2
notes: knob-into-hole TDB; also called 1G7.v85 TDB; 1G7.v85 (TDB format)

From patent publication US20240383984A1 (Genentech, published 2024)
